Experimental data reported in article PMC4719306 (Genes & Development, 2016).

B1: Flag-tagged full-length PA1 (recombinant) (natural protein, UniProt Q99L02 1-253, looked up)
chain: MSLALGHGTIAGSTAAPLSEEGEVTSGLQALAVEDTGGPSVSASKAEEEGKGSQEEAGREGSRPEEALEAPSAASDERAEGEAEDWCVPCSDEEVELPANGQSWMPPPSEIQRLYELLATQGTLELQAEILPRRPPTPEAQSEEERSDEEPEAKEEEEEKPHMPTEFDFDDEPMTPKDSLIDRRRTPGSSARSQKREARLDKVLSDMKRHKKLEEQILRTGRDLFSLDSEGPSPTSPPLRSSGNSLFPRQRKY
B2: Strep-tagged N-terminal BRCT1–2 domain fragment of PTIP (recombinant) (domain or fragment)
chain: VPEELFREVKYYAVGDIDPQVIQLLKAGKAKEVSYNALASHIISEDGDNPEVGEAREVFDLPVVKPSWVTLSVQCGALLPVNGFSPESCQIFFGLTACLSQVSSEDRSALWALVTFHGGSCQLNLNKKCTHLIVPEPKGEKYERAVKRTSIKIVTPDWVLDCVSEKRRKDEAFYHP

Legend:
[1] = molecular target: B2; assay: ITC
[2] = molecular target: B1; assay: ITC

| dH [1] | stoichiometry N [1] | Kd [2] | Binder |
| --- | --- | --- | --- |
| -26 kcal/mol | 1 |  | B1 |
|  |  | 7.1 nM | B2 |
